From article PMC6053418, “CTC1-STN1 terminates telomerase while STN1-TEN1 enables C-strand synthesis during telomere replication in colon cancer cells”

Legend:
[1] = molecular target: T1, CST (CTC1-STN1-TEN1) (Homo sapiens, UniProt Q2NKJ3;Q9H668;Q86WV5 1-1217;1-368;1-123); assay: EMSA; apparent Kd; EMSA: 25 mM Tris-HCl pH 8.0, 100 mM NaCl, 1 mM DTT; 0.1 nM DNA, 30 min RT (Kd(app): 0.01 nM DNA, 18 h, 4 °C). smFRET: 25 mM Tris-HCl pH 8.0, 150 mM NaCl, 1 mM D; details: protein: recombinant; tags: FLAG-CTC1, FLAG-STN1, untagged TEN1; copies: 1;1;1; label: 32P
T1 sequence (Q2NKJ3 whole entry, chain 1 of 3): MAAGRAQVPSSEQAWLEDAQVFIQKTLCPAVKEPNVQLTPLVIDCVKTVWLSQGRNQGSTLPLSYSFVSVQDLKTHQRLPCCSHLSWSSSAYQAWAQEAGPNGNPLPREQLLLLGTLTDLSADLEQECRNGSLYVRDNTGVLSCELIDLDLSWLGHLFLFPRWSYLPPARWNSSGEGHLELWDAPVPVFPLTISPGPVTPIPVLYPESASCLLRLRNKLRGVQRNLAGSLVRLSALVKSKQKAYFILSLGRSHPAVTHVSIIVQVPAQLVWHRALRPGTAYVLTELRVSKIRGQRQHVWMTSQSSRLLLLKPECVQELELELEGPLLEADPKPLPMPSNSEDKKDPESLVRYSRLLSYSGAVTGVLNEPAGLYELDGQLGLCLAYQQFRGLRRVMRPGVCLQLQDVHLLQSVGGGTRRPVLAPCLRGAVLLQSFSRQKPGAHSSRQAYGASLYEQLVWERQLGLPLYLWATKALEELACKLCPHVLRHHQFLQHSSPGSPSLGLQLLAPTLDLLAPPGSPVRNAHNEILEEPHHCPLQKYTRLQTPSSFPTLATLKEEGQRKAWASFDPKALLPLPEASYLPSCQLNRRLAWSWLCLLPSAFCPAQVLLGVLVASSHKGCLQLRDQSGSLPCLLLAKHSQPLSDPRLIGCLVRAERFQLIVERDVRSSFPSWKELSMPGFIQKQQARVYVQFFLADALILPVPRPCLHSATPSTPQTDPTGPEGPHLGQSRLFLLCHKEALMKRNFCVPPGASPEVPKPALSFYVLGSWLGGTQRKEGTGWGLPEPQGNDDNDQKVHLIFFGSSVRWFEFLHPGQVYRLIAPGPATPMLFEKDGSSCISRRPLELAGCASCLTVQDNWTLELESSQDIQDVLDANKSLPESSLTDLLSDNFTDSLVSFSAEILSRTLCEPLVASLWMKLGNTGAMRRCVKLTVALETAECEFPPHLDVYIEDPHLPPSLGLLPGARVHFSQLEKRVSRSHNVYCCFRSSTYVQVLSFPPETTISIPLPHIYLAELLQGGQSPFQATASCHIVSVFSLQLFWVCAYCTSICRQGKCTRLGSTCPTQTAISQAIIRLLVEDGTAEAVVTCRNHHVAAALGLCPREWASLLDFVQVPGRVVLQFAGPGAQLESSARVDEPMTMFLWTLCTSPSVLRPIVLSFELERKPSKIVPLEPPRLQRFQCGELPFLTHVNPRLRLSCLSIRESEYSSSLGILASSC
T1 sequence (Q9H668 whole entry, chain 2 of 3): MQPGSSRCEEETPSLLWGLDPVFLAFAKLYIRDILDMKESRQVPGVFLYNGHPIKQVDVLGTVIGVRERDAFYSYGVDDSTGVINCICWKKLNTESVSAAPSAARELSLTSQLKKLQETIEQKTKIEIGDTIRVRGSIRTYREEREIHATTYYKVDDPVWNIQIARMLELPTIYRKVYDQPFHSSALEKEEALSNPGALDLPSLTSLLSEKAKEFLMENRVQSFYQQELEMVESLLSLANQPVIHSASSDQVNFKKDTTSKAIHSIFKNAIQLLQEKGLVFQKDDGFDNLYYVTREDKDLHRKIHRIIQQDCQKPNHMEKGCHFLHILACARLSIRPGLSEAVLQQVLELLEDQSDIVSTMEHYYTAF
T1 sequence (Q86WV5 whole entry, chain 3 of 3): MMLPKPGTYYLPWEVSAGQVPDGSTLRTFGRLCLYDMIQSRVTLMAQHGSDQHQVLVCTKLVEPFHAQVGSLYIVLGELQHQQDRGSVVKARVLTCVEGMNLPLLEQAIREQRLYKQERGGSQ

[2] = molecular target: T2, CS (CTC1-STN1) (Homo sapiens, UniProt Q2NKJ3;Q9H668 1-1217;1-368); assay: as above; details: protein: recombinant; tags: FLAG-CTC1, FLAG-STN1; copies: 1;1; label: 32P
T2 sequence (Q2NKJ3 whole entry, chain 1 of 2): as the sequence (Q2NKJ3 whole entry, chain 1 of 3) above
T2 sequence (Q9H668 whole entry, chain 2 of 2): as the sequence (Q9H668 whole entry, chain 2 of 3) above

[3] = molecular target: T1, CST (CTC1-STN1-TEN1); assay: EMSA; EMSA: 25 mM Tris-HCl pH 8.0, 100 mM NaCl, 1 mM DTT; 0.1 nM DNA, 30 min RT (Kd(app): 0.01 nM DNA, 18 h, 4 °C). smFRET: 25 mM Tris-HCl pH 8.0, 150 mM NaCl, 1 mM D; details: protein: recombinant; tags: FLAG-CTC1, FLAG-STN1, untagged TEN1; copies: 1;1;1; label: 32P; hairpin, 15 bp stem, T5 loop, 3' overhang 18 nt
[4] = molecular target: T2, CS (CTC1-STN1); assay: EMSA; about 5-fold less efficient than CST; EMSA: 25 mM Tris-HCl pH 8.0, 100 mM NaCl, 1 mM DTT; 0.1 nM DNA, 30 min RT (Kd(app): 0.01 nM DNA, 18 h, 4 °C). smFRET: 25 mM Tris-HCl pH 8.0, 150 mM NaCl, 1 mM D; details: protein: recombinant; tags: FLAG-CTC1, FLAG-STN1; copies: 1;1; label: 32P; hairpin, 15 bp stem, T5 loop, 3' overhang 18 nt
[5] = molecular target: T1, CST (CTC1-STN1-TEN1); assay: smFRET; 2 nM protein; dwell time 14.32 ± 0.81 (s; assigned from figure text); EMSA: 25 mM Tris-HCl pH 8.0, 100 mM NaCl, 1 mM DTT; 0.1 nM DNA, 30 min RT (Kd(app): 0.01 nM DNA, 18 h, 4 °C). smFRET: 25 mM Tris-HCl pH 8.0, 150 mM NaCl, 1 mM D; details: protein: recombinant; tags: FLAG-CTC1, FLAG-STN1, untagged TEN1; copies: 1;1;1; label: strand 1 3'-Cy3; strand 2 5'-Cy5 and 3'-biotin; 18 bp duplex, 3' overhang 18 nt
[6] = molecular target: T2, CS (CTC1-STN1); assay: smFRET; 2 nM protein, imaged immediately; dwell time 8.22 ± 0.64 (s; assigned from figure text), 43% lower than CST; lost after flushing; EMSA: 25 mM Tris-HCl pH 8.0, 100 mM NaCl, 1 mM DTT; 0.1 nM DNA, 30 min RT (Kd(app): 0.01 nM DNA, 18 h, 4 °C). smFRET: 25 mM Tris-HCl pH 8.0, 150 mM NaCl, 1 mM D; details: protein: recombinant; tags: FLAG-CTC1, FLAG-STN1; copies: 1;1; label: strand 1 3'-Cy3; strand 2 5'-Cy5 and 3'-biotin; 18 bp duplex, 3' overhang 18 nt

| Binder | Kd [1] | Kd [2] | further results |
| --- | --- | --- | --- |
| GGTTAGGGTTAGGGTTAG (ssDNA) [Tel-18] | 0.21 ± 0.07 nM | 1.04 ± 0.46 nM |  |
| NonTel fold-back 18 nt 3' overhang (structured_DNA) DNA: ACGACTGCATCTAGCTTTTTGCTAGATGCAGTCGTAGCGTATCCGTTCAGTTG |  |  | binding result [3]: binds; binding result [4]: binds |
| GGTTAGGGTTAGGGTTAGGGTTAGGGTTAGGGTTAG (ssDNA) [Tel-36] | 0.02 ± 0.03 nM | 0.33 ± 0.08 nM |  |
| smFRET junction, 18 nt overhang (dsDNA) DNA 1: TGGCGACGGCAGCGAGGCAGCGTATCCGTTCAGTTG DNA 2: GCCTCGCTGCCGTCGCCA |  |  | binding result [5]: binds; binding result [6]: binds |
| AGCGTATCCGTTCAGTTGAGCGTATCCGTTCAGTTGAGCGTATCCGTT (ssDNA) [NonTel-48] | 0.01 ± 0.005 nM | 0.08 ± 0.05 nM |  |
